Measurements reported in US20240287188A1 (KUMHO HT, published 2024).

What was measured:
[1] = biological target: ICAM-1 expressed on the surface of the prostate cancer cell line Du145 (human) (UniProt P05362); assay: flow cytometry on Du145 cells expressing ICAM-1
[2] = biological target: T1, ICAM-1 protein antigen (R&D System) (human, UniProt P05362 28-480); assay: ELISA, ICAM-1 coated 100 ng/well, anti-human Ig-HRP
T1 construct: The assay paragraphs say only 'ICAM-1 (R&D System)'; also called antigen ICAM-1; ICAM-1 antigen
T1 sequence (P05362 28-480 limits assumed): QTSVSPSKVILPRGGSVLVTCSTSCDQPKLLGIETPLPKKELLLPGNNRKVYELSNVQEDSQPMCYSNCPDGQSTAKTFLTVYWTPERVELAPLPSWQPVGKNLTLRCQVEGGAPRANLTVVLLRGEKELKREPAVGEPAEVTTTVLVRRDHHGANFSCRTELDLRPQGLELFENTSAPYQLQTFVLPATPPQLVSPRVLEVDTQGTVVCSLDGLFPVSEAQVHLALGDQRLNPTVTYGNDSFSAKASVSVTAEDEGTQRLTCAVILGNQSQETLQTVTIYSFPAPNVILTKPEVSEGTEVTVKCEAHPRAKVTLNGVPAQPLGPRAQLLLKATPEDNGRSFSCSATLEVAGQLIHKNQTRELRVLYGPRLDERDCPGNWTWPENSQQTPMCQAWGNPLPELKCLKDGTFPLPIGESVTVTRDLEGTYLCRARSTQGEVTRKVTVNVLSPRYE
Procedure: The antigen ICAM-1 (ICAM-1; R&D System) was coated on a 96 well plate at 100 ng per well, followed by blocking. The amount of the primary antibody was serially diluted twice from 80 ng/ml and bound for 1 hour at 37° C. and a secondary antibody diluted 1:10000 with goat anti-Human Ig-HRP conjugate (Jackson ImmunoResearch) was combined at 37° C. for 30 minutes. Each step was washed three times and reacted with TMB (3,3′,5,5′-Tetramethylbenzidine). After the reaction was stopped by treatment with 1N H₂SO₄ solution in the same amount (100 ul) as the TMB solution, the OD value was measured at 450 nm.

[3] = biological target: T1, ICAM-1 protein antigen (R&D System); assay: BLI (Octet), antibody coupled to AR2G amine-reactive sensor, ICAM-1 in solution at 5 concentrations
Procedure: The Octet system (ForteBio) was used to compare the affinity of the H17L1 and H17L4 humanized antibodies to the antigen with the parent antibody. Each of three antibodies was attached to the amine reactive Bio-sensor AR2G (ForteBio), and 5 different concentrations of ICAM-1 antigen solution were added to induce antigen/antibody reactions to occur. Using the antigen/antibody reaction results, the binding constant (Kon) and the dissociation constant (Koff) were measured, and the affinity (KD) was calculated, and the results are shown in Table 10 and FIG. 8: […]

Sequence of ICAM-1 expressed on the surface of the prostate cancer cell line Du145 (human) (P05362 28-532): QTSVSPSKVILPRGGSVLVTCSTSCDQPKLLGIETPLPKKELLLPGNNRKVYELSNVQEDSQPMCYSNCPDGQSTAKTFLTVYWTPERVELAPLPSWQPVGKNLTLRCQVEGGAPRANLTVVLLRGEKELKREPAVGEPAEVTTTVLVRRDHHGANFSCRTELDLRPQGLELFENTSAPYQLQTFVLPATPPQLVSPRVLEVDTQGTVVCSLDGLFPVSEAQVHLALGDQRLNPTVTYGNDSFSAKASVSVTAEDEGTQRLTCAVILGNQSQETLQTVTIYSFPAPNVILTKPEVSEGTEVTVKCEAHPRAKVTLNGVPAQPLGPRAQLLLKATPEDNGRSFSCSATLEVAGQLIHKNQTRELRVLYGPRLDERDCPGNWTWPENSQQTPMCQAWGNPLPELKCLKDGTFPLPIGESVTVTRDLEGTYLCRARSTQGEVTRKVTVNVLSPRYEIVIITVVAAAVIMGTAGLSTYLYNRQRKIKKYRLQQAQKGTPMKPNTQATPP

Row | Molecule | % Gated (marker M1) [1] | Mean (marker All) [1] | Mean (marker M1) [1] | OD 450 nm at 2.5 ng/ml antibody [2] | OD 450 nm at 5 ng/ml antibody [2] | OD 450 nm at 10 ng/ml antibody [2] | OD 450 nm at 20 ng/ml antibody [2] | OD 450 nm at 40 ng/ml antibody [2] | OD 450 nm at 80 ng/ml antibody [2] | Kd [3] | koff [3] | kon [3]
1 | Negative control | 0.58% | 3.9 | 91 | – | – | – | – | – | – | – | – | –
2 | humanized anti-ICAM-1 antibody H17L3 (VH17 + VL3), human IgG4/kappa (antibody, V domains shown, The Arg at the VL/CL junction is in neither entry) VH: QVQLVQSGAEVKKPGASVKISCKGSGYTFTDYALHWVRQAPGQRLEWMGVISTYSGNTDYNQKFRGRATITVDTSASTAYMELSSLRSEDTAVYYCARSLYFGSSGFDYWGQGTALTVSS VL: DVVLTQTPLSSPVTLGQPASISCRSSQTLVYRNGNTYLHWYLQRAGQPPRLLIYKVSNRFSGVPDRFSGSGAGTDFTLKISRVEAEDVGVYFCSQNTHFPYTFGGGTKLEIKT | – | – | – | 0.135 OD (450 nm) | 0.201 OD (450 nm) | 0.344 OD (450 nm) | 0.567 OD (450 nm) | 0.848 OD (450 nm) | 1.2 OD (450 nm) | – | – | –
3 | humanized anti-ICAM-1 antibody H4L3 (VH4 + VL3), human IgG4/kappa (antibody, V domains shown, The Arg at the VL/CL junction is in neither entry) VH: QVQLVQSGAEVKKPGASVKVSCKASGYTFTDYALHWVRQAPGQRLEWIGVISTYSGNTDYNQKFRGRVTMTRDTSATTAYLELSSLRSEDTAVYYCARSLYFGSSGFDYWGQGTALTVSS VL: DVVLTQTPLSSPVTLGQPASISCRSSQTLVYRNGNTYLHWYLQRAGQPPRLLIYKVSNRFSGVPDRFSGSGAGTDFTLKISRVEAEDVGVYFCSQNTHFPYTFGGGTKLEIKT | – | – | – | 0.115 OD (450 nm) | 0.189 OD (450 nm) | 0.305 OD (450 nm) | 0.52 OD (450 nm) | 0.832 OD (450 nm) | 1.23 OD (450 nm) | – | – | –
4 | humanized anti-ICAM-1 antibody H5L3 (VH5 + VL3), human IgG4/kappa (antibody, V domains shown, The Arg at the VL/CL junction is in neither entry) VH: QVQLVQSGAEVKKPGASVKISCKASGYTFTDYALHWVRQAPGQRLEWMGVISTYSGNTDYNQKFRGRVTITVDKSATTAYMELSSLRSEDTAVYYCARSLYFGSSGFDYWGQGTALTVSS VL: DVVLTQTPLSSPVTLGQPASISCRSSQTLVYRNGNTYLHWYLQRAGQPPRLLIYKVSNRFSGVPDRFSGSGAGTDFTLKISRVEAEDVGVYFCSQNTHFPYTFGGGTKLEIKT | – | – | – | 0.128 OD (450 nm) | 0.208 OD (450 nm) | 0.35 OD (450 nm) | 0.592 OD (450 nm) | 0.862 OD (450 nm) | 1.25 OD (450 nm) | – | – | –
5 | humanized anti-ICAM-1 antibody H17L1 (VH17 + VL1), human IgG4/kappa (antibody, V domains shown) VH: QVQLVQSGAEVKKPGASVKISCKGSGYTFTDYALHWVRQAPGQRLEWMGVISTYSGNTDYNQKFRGRATITVDTSASTAYMELSSLRSEDTAVYYCARSLYFGSSGFDYWGQGTALTVSS VL: DVVLTQSPLSLPVTLGQPASISCRSSQTLVYRNGNTYLHWYQQRPGQSPRLLIYKVSNRFSGVPDRFSGSGSGTDFTLKISRVEAEDVGVYFCSQNTHFPYTFGGGTKLEIKT | – | – | – | 0.119 OD (450 nm) | 0.186 OD (450 nm) | 0.297 OD (450 nm) | 0.506 OD (450 nm) | 0.802 OD (450 nm) | 1.11 OD (450 nm) | 3.43 nM | 0.000853 s⁻¹ | 249000 M⁻¹ s⁻¹
6 | humanized anti-ICAM-1 antibody H17L4 (VH17 + VL4), human IgG4/kappa (antibody, V domains shown, The Arg at the VL/CL junction is in neither entry; also called DNP007; DNP007 antibody (H17L4 antibody)) VH: QVQLVQSGAEVKKPGASVKISCKGSGYTFTDYALHWVRQAPGQRLEWMGVISTYSGNTDYNQKFRGRATITVDTSASTAYMELSSLRSEDTAVYYCARSLYFGSSGFDYWGQGTALTVSS VL: DVVLTQTPLSSPVTLGQPASISCRSSQTLVYRNGNTYLHWYQQRPGQPPRLLIYKVSNRFSGVPDRFSGSGAGTDFTLKISRVEAEDVGVYFCSQNTHFPYTFGGGTKLEIKT | – | – | – | 0.136 OD (450 nm) | 0.236 OD (450 nm) | 0.349 OD (450 nm) | 0.637 OD (450 nm) | 0.983 OD (450 nm) | 1.24 OD (450 nm) | 3.62 nM | 0.000929 s⁻¹ | 256000 M⁻¹ s⁻¹
7 | chimeric anti-ICAM-1 antibody SI9 (mouse SI9 variable regions, human IgG4/kappa constant regions) (antibody, the hinge lies in the heavy chain; also called chimeric antibody SI9; SI9 Chimeric; not shown: human IgG4 heavy chain constant region, GenBank AIC59040.1 (printed), hinge 'CPSCP' modified to 'CPPCP' (position not pr); human kappa light chain constant region, GenBank AAA58989.1 (printed)) heavy: QVQLQQSGAELVRPGVSVKISCKGSGYTFTDYALHWVKQSHAKSLEWIGVISTYSGNTDYNQKFRGKATMTVDKSSTTAYLELARLTSEDSAIHYCARSLYFGSSGFDYWGQGTALTVSS light: DVVLTQTPLSLPVNLGDQASISCRSSQTLVYRNGNTYLHWYLQKAGQSPKLLIYKVSNRFSGVPDRFSGSGSGTDFTLKISRVEAEDLGVYFCSQNTHFPYTFGGGTKIKR | – | – | – | 0.118 OD (450 nm) | 0.182 OD (450 nm) | 0.298 OD (450 nm) | 0.473 OD (450 nm) | 0.724 OD (450 nm) | 1.14 OD (450 nm) | 10.3 nM | 0.00169 s⁻¹ | 165000 M⁻¹ s⁻¹
